Measured values reported in paper PMC9884178 (Nature, 2022).

Molecular target: T1, WaaL from Cupriavidus metallidurans (CmWaaL) in MSP1E3D1 nanodiscs, as used for ELISA (Cupriavidus metallidurans CH34)
T1 chain: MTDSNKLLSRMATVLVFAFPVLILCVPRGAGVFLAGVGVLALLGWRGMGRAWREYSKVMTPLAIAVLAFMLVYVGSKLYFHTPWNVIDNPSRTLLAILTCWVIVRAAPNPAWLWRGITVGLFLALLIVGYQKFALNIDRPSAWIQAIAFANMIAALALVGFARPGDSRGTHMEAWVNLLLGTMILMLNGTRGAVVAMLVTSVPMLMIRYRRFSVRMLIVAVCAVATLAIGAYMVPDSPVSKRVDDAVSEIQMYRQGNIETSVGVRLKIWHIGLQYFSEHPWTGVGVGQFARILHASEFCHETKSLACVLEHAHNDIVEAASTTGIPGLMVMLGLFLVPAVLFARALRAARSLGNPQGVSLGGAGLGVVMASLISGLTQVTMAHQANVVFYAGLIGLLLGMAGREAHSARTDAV
Assay: ELISA

EC50: 1.87 nM
B1: WaB10 Fab (synthetic antigen binder against CmWaaL) (Fab, V domains shown)
VH: EVQLVESGGGLVQPGGSLRLSCAASGFNVYSSSIHWVRQAPGKGLEWVAYISSYYGSTYYADSVKGRFTISADTSKNTAYLQMNSLRAEDTAVYYCARIMFKWVSPNMAFDYWGQGTLVTVSS
VL: DIQMTQSPSSLSASVGDRVTITCRASQSVSSAVAWYQQKPGKAPKLLIYSASSLYSGVPSRFSGSRSGTDFTLTISSLQPEDFATYYCQQSYYSLVTFGQGTKVEIK
